# Test results taken from paper PMC3292583, “Poplar GTL1 Is a Ca2+/Calmodulin-Binding Transcription Factor that Functions in Plant Water Use Efficiency and Drought Tolerance”.
# T1: PtaGTL1-C (C-terminal trihelix DNA-binding fragment) (Populus tremula x P. alba (clone …, UniProt G8G9Q9 528-779))
# T1 sequence: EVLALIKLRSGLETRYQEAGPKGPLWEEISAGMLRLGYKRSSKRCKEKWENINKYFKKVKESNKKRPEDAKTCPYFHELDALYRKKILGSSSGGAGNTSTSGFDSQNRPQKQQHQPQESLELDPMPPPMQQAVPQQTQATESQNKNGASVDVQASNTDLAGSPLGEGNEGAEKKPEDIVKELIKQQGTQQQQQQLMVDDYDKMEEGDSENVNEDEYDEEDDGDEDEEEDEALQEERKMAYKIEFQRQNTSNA
# B1: AtSDD1 promoter fragment with GT3 box (dsDNA)
# DNA 1: TTCTTTGGCTTGGTAAAACTTCAATGGA
# DNA 2: TCCATTGAAGTTTTACCAAGCCAAAGAA
# B2: PtSDD1m (GT2 box GGTAAT to CCTAAT) (dsDNA)
# DNA 1: TTCGTGAATATCCTAATGATTAT
# DNA 2: ATAATCATTAGGATATTCACGAA
# B3: AtSDD1m (GT3 box GGTAAA to CCTAAA) (dsDNA)
# DNA 1: TTCTTTGGCTTCCTAAAACTTCAATGGA
# DNA 2: TCCATTGAAGTTTTAGGAAGCCAAAGAA
# Columns and labels:
# [1] = biological target: T1, PtaGTL1-C (C-terminal trihelix …); test: EMSA; LightShift Chemiluminescent EMSA kit, per cited earlier method; 200 ng biotin probe, 1000 ng competitor; binding buffer, salt, pH and temperature not stated (probes annealed in 10 mM Tris-HCl, 1 mM EDTA, pH 8.0); conditions: protein: recombinant; tags: N-terminal 6xHis (pDEST17); label: 3' biotin (probe); blunt
# [2] = biological target: T1, PtaGTL1-C (C-terminal trihelix …); test: EMSA; text: mutation inhibited the interaction; LightShift Chemiluminescent EMSA kit, per cited earlier method; 200 ng biotin probe, 1000 ng competitor; binding buffer, salt, pH and temperature not stated (probes annealed in 10 mM Tris-HCl, 1 mM EDTA, pH 8.0); conditions: protein: recombinant; tags: N-terminal 6xHis (pDEST17); label: 3' biotin (probe); blunt
Binder,binding result [1],binding result [2]
B1,binds,
B2,,no binding
B3,no binding,
